Source: US20020081574
Read-outs that look alike come from different tables or passages of the source.

Experiments:
[1] = target: HCV NS3 full length (bacNS3 derived) (Hepatitis C virus strain H) (UniProt P27958)
[2] = target: HCV NS3 full length (bacNS3-5B derived) (Hepatitis C virus strain H) (UniProt P27958)
[3] = target: HCV NS3 full length (bacNS3-5B derived) (Hepatitis C virus strain H) (UniProt P27958); conditions: Km for RNA substrate; helicase strand displacement, PIPES pH 6.5, MnCl2, 37 C

HCV NS3 full length (bacNS3-5B derived) (Hepatitis C virus strain H), sequence (P27958 1027-1657): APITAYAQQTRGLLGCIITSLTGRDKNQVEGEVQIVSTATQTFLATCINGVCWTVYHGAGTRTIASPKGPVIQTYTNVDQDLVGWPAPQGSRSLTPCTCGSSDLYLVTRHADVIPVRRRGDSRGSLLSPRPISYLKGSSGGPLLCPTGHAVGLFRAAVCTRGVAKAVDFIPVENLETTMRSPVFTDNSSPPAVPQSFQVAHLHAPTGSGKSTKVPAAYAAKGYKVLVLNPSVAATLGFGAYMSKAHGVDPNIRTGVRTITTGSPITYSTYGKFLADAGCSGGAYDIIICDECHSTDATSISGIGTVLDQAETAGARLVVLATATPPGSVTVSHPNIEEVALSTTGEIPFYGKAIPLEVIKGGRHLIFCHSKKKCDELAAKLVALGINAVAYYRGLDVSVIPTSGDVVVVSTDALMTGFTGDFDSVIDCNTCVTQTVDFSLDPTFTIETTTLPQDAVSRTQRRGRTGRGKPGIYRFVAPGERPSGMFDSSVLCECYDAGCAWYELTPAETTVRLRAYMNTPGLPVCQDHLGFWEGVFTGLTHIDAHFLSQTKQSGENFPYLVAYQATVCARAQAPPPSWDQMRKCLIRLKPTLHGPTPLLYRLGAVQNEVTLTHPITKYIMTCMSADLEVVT
HCV NS3 full length (bacNS3 derived) (Hepatitis C virus strain H), sequence (P27958 1027-1657): as above

Substance | activity ([1]; ATPase rate with poly(U), 0 without) | activity ([2]; ATPase rate with poly(U), 23 without) | activity ([1]; helicase catalytic rate) | activity ([2]; helicase catalytic rate) | activity [3]
poly(U) | 659 min⁻¹ | 1050 min⁻¹ | – | – | –
standard RNA helicase substrate (3' and 5' single strand regions) | – | – | 0.003 min⁻¹ | 0.01 min⁻¹ | 0.5 nM
